From paper PMC6778148 (Nature Communications, 2019) come the findings set out here.

To fix the notation:
B1: SAP102 tandem PDZ domains 1 and 2 (SAP102-12), from pET-NO (domain or fragment, rat)
chain: FKYEEIVLERGNSGLGFSIAGGIDNPHVPDDPGIFITKIIPGGAAAMDGRLGVNDCVLRVNEVDVSEVVHSRAVEALKEAGPVVRLVVRRRQPPPETIMEVNLLKGPKGLGFSIAGGIGNQHIPGDNSIYITKIIEGGAAQKDGRLQIGDRLLAVNNTNLQDVRHEEAVASLKNTSDMVYLKVAKPGSL
notes: first two PDZ domains of rat SAP102, residues 145-333; also called NO-SAP102-12
B2: PSD-95 PDZ domain 2 (PSD-95-2), as used for fluorescence polarisation (domain or fragment, rat)
chain: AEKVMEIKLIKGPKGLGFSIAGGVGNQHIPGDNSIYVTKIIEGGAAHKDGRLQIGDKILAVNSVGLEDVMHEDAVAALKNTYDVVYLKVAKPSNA
notes: also called PSD-95 second PDZ domain; source: E. coli, purified
B3: biotinylated Xph15 [S63K]-(GGS)12-ETWV, from pbIG (designed binder)
chain: SSVSSVPTKLEVVAATPTSLLISWDAGPRNVSYYRITYGETGGNSPVQEFTVPGSSSTATISGLKPGVDYTITVYASGHVSTLMTPISINYRTLEGGSGGSGGSGGSGGSGGSGGSGGSGGSGGSGGSGGSGTETWV
modifications: biotin on the AviTag (BirA)
B4: biotinylated Xph18 [S63K]-(GGS)12-ETWV, from pbIG (designed binder)
chain: SSVSSVPTKLEVVAATPTSLLISWDAHSRMAWVNYYRITYGETGGNSPVQEFTVPGSSSTATISGLKPGVDYTITVYANGGGFRRGMAPISINYRTLEGGSGGSGGSGGSGGSGGSGGSGGSGGSGGSGGSGGSGTETWV
modifications: biotin on the AviTag (BirA)
B5: biotinylated Xph20 [S63K]-(GGS)12-ETWV, from pbIG (designed binder)
chain: SSVSSVPTKLEVVAATPTSLLISWDAVAKNVKVGYYRITYGETGGNSPVQEFTVPGSSSTATISGLKPGVDYTITVYANGVLSKMVLPISINYRTLEGGSGGSGGSGGSGGSGGSGGSGGSGGSGGSGGSGGSGTETWV
modifications: biotin on the AviTag (BirA)
notes: also called Xph20-ETWV; not shown: AviTag (biotin acceptor peptide), N-terminal, kept

Primed or numbered codes have the meaning given here. Ends that are not written are not given here. FITC′ = fluorescein isothiocyanate label; TTDS = PEG linker

Settings in all cases: both partners purified
Test [1] has as its target B5. Description: SPR; Biacore T200, single cycle kinetics at higher analyte concentrations (up to 35 µM); biotinylated Xph15/18/20-ETWV captured (ligand), tandem PDZ domains as analyte; steady state analysis, one site binding (hyperbola).
Test [2] deals with B3. The test is described as above.
Test [3] addresses B4. The description is as above.
The target of test [4] is T1, fluorescein-labelled monovalent stargazin peptide.
T1 chain: {FITC′-TTDS}-DSLHANTANRRTTPV
Description: fluorescence polarisation; direct titration: 50 nM fluorescein-labelled stargazin ligand (divalent or monovalent) against increasing concentrations of PDZ domains; apparent KD.

Test [5] concerns the target T2, PSD-93 tandem PDZ domains 1 and 2 (PSD-93-12), from pET-NO (rat).
T2 construct: first two PDZ domains of rat PSD-93, residues 93-282; also called NO-PSD-93-12
Put plainly: SPR; Biacore T200, single cycle kinetics at higher analyte concentrations (up to 35 µM); biotinylated Xph15/18/20-ETWV captured (ligand), tandem PDZ domains as analyte; steady state analysis, one site binding (hyperbola). A general note: In SPR one partner is held on a chip, and binding of the other changes the refractive index at the surface.

Test [6] deals with T3, PSD-95 tandem PDZ domains 1 and 2 (PSD-95-12), from pET-NO (rat).
T3 construct: first two PDZ domains of rat PSD-95, residues 61-249; also called NO-PSD-95-12; not shown: His8, N-terminal, kept
Put plainly: SPR; Biacore T200, single cycle kinetics; biotinylated Xph-motif fusion captured on a CAP chip (ligand), tandem PDZ domains as analyte; 25 °C; PBS with 500 mM NaCl pH 7.4, 0.1% Tween 20; global 1:1 fit (kinetics analysis).

For test [7], the target named is T3, PSD-95 tandem PDZ domains 1 and 2 …. Description: pull-down; competitive pull-down: streptavidin beads with 120 pmol biotinylated [Stg15]2, 180 pmol tandem PDZ domains, then 0-50 (100) equivalents of Xph20-ETWV or Xph0-ETWV; PBS with 500 mM NaCl pH 7.4, Tween 20, 0.5% BSA; SDS-PAGE, colloidal blue, densitometry; One site - Fit Ki.
The target of test [8] is T4, SAP97 tandem PDZ domains 1 and 2 (SAP97-12), from pET-NO (rat).
T4 construct: first two PDZ domains of rat SAP97, residues 220-408; also called NO-SAP97-12; not shown: His8, N-terminal, kept
The test is described as above.

Test [9] concerns the target T2, PSD-93 tandem PDZ domains 1 and 2 …. The test is described as above.
The target in test [10] is B1. The description is as above.
Test [11] deals with B2. Description: fluorescence polarisation; competitive titration: ETWV or stargazin monovalent peptide against the complex of 50 nM FITC monovalent stargazin peptide with 24 µM PSD-95-2.
For test [12], the target named is B2. The test is described as above.

T2 sequence (chain, as listed by the source): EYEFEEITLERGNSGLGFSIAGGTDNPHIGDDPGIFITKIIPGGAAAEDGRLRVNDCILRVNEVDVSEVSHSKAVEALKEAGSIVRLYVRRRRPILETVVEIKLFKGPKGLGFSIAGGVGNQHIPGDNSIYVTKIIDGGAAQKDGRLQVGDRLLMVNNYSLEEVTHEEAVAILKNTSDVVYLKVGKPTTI

B1: the figures for the Kd in test [1], in test [2] and in test [3] were 9.9 µM, 9.8 µM and 4.2 µM, respectively.
Take B2: in test [4], the Kd amounted to 16 µM.
The molecule B3 had a Kd in test [5] of 8.4 µM.
Turning to B4, in test [5], the Kd is 3.2 µM.
As a reminder, the koff is the rate constant with which the complex falls apart. Low values mean slow dissociation, high ones fast dissociation. A word on the kon: it is the second-order rate constant of association. B5 returned a Kd in [5] of 7.5 µM. In addition, in test [6], the Kd stood at 89 pM, the koff is 0.00052 s⁻¹ and the kon stood at 8.7e+06 M⁻¹ s⁻¹.

B6: Xph20 [S63K]-(GGS)12-ETWV with N-terminal His10, from pET-IG (designed binder)
chain: SSVSSVPTKLEVVAATPTSLLISWDAVAKNVKVGYYRITYGETGGNSPVQEFTVPGSSSTATISGLKPGVDYTITVYANGVLSKMVLPISINYRTLEGGSGGSGGSGGSGGSGGSGGSGGSGGSGGSGGSGGSGTETWV
notes: also called Xph20-ETWV; pIG-Xph20-ETWV; not shown: His10, N-terminal, kept
One may read the Ki as a measure of affinity in units of concentration, obtained from inhibition or displacement. Regarding B6, the Ki is 0.0365 µM in [7], 0.901 µM in test [8], 0.261 µM in test [9] and 1.44 µM in test [10].
On to Ac-DSLHANTANRRTTPV [acetylated monovalent stargazin peptide], for which the values for the Ki in test [11] and in [12] were 8.8 µM and 8.6 µM, respectively.
